Data published in paper PMC2952653 (Journal of molecular biology, 2010).

B1: MEF2 site 14mer (crystal) (dsDNA)
DNA 1: AACTATTTATAAGA
DNA 2: TTCTTATAAATAGT
B2: MADS-box/MEF2 domain of human MEF2A (residues 2-95) (domain or fragment, UniProt Q02078 2-95, looked up)
chain: GRKKIQITRIMDERNRQVTFTKRKFGLMKKAYELSVLCDCEIALIIFNSSNKLFQYASTDMDKVLLKYTEYNEPHESRTNSDIVEALNKKEHRG

Tests used:
[1] = target: MEF2A (2-95), MADS-box/MEF2 domain (Homo sapiens, UniProt Q02078 2-95); test: X-ray crystallography
[2] = target: the molecule itself; test: multiangle light scattering

Binder	binding result [1]	stoichiometry N [2]
B1	binds	–
B2	–	2
